Legend:
[1] = target: capsule O-acetyltransferase CsaC, wild type (Neisseria meningitidis serogroup A); test: crystal structure; sitting drop, PEG200, HEPES pH 7.0/7.6; two protein molecules in the asymmetric unit, tetrameric assembly in the crystal packing; apo, CPS-DP4-soaked (wild type) and acetyl-CoA-soaked (H228A) crystals
[2] = target: capsule O-acetyltransferase CsaC, wild type (Neisseria meningitidis serogroup A); test: AUC; sedimentation velocity (3.0 to 40.9 µM CsaC, 35,000 rpm) and sedimentation equilibrium (9.1 and 40.9 µM CsaC, single species model), 20 °C, 50 mM HEPES pH 7.0, 0.1 M NaCl, 5 mM MgCl2, 1 mM EDTA
[3] = target: CsaC-H228A (Neisseria meningitidis serogroup A); test: crystal structure; sitting drop, PEG200, HEPES pH 7.0/7.6; two protein molecules in the asymmetric unit, tetrameric assembly in the crystal packing; apo, CPS-DP4-soaked (wild type) and acetyl-CoA-soaked (H228A) crystals

Substance	stoichiometry N [1]	stoichiometry N [2]	stoichiometry N [3]
capsule O-acetyltransferase CsaC, wild type (enzyme)	4	4	
CsaC-H228A (enzyme)			4

From publication PMC7501274
